Assay [1] addresses T1, Peptide 1B (biotinylated in the ELISA of Figure 3 A (site not given)).
T1 construct: also called STIM1 peptide 1B; aa 169 to aa 197
In words: ELISA, DO492 - DO Blanc. The method, then: (§1) FIG. 3 illustrated the validation by Elisa of the monoclonal anti-STIM1 antibody clone B-M4. […] Anti-STIM1 mAb clone B-M4 mAb (10 μg/ml) was diluted to 1/10 and antigens STIM1 biotinylated peptides used at concentrations of 50 ng/well for peptides 1A and 1B and 100 ng/well for peptide 2A and 10 ng/well for peptide 2B. Panel B: Specificity of the B-M4 antibody for STIM1 is confirmed by ELISA using the peptide 2B and a recombinant STIM1 EF/SAM peptide (1 μg/mL). B-M4 mAb used at 100 μg/mL diluted to 1/10. Panel C: Specificity for the B-M4 antibody for the peptide 2B over the other peptides (1A, 1B, 2A, 2B, C2, C3, C4, C5, C6, C7 and C8). Peptides are used at a concentration of 1 μg/mL. Histograms represents mean optical density measured using an Elisa approach.

The target of assay [2] is T2, Peptide 2A (biotinylated in the ELISA of Figure 3 A (site not given)).
T2 construct: also called STIM1 peptide 2A; aa 62 to aa 95
In words: ELISA, DO492 - DO Blanc. The method, then: as §1

Assay [3] has as its target T3, Peptide 1A (biotinylated in the ELISA of Figure 3 A (site not given)).
T3 construct: also called STIM1 peptide 1A; aa 128 to aa 168
In words: ELISA, DO492 - DO Blanc and DO492 - DO630. The method, then: as §1

In assay [4] the target is T4, STIM1 peptide 2B (amino acids 97-127 of STIM1) (human, biotinylated in the ELISA of FIG. 3 panel A (position not given)).
T4 construct: One of the two immunization peptides
In words: ELISA on Peptide 2B (aa 97-127), B-M4 titrated. The method, then: as §1

Assay [5] concerns the target T5, recombinant STIM1 EF/SAM peptide (STIM1 aa 58-201) (human, UniProt Q13586 58-201).
T5 construct: also called soluble recombinant protein corresponding to the STIM1 EF-Hand domain
In words: Octet (BLI), 1 to 1 fitting model, EF-SAM peptide at 300, 200 and 133 nM. The method, then:
(§2) Affinity constants (Kon, Kdis) were calculated.

In assay [6] the target is T6, mouse STIM1 at the plasma membrane of mouse spleen B and T cells (mouse, UniProt P70302 23-685).
T6 construct: whole, on cells; also called mSTIM1 (mice B and T cells)
In words: direct flow cytometry with PE coupled B-M4 on spleen B and T cells, n=4.

For assay [7], the target named is T5, recombinant STIM1 EF/SAM peptide (STIM1 …). In words: ELISA on recombinant STIM1 EF-SAM peptide (aa 58-201) at 1 µg/mL, B-M4 titrated. The method, then: as §1
For assay [8] the target is unchanged. In words: Octet, EF-SAM peptide at 300, 200 and 133 nM, 1 to 1 fitting model; same value in all three rows [table]. The method, then:
(§3) FIG. 9 represents the determination of the anti-STIM1 mAb clone B-M4 affinity. […] High affinity interaction is characterized by a low K, a fast recognizing (high kon) and a stable formation of complexes (low kdis). kdis: dissociation rate constant. kon: complex formation rate.
as §2

The target is the same in assay [9]. In words: Octet, EF-SAM peptide at 300, 200 and 133 nM, 1 to 1 fitting model; column kdis, same value in all three rows [table]. The method, then: as §3, §2

T5 sequence (Q13586 58-201): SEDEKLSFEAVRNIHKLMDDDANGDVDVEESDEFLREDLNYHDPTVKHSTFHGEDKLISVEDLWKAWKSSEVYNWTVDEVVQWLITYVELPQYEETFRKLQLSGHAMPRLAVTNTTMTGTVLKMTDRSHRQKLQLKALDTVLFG
T2 sequence (peptide, as listed by the source): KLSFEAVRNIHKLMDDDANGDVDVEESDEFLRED
T4 sequence (peptide, as listed by the source): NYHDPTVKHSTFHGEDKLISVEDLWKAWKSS
T3 sequence (peptide, as listed by the source): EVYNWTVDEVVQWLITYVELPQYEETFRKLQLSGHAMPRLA
T6 sequence (P70302 23-685): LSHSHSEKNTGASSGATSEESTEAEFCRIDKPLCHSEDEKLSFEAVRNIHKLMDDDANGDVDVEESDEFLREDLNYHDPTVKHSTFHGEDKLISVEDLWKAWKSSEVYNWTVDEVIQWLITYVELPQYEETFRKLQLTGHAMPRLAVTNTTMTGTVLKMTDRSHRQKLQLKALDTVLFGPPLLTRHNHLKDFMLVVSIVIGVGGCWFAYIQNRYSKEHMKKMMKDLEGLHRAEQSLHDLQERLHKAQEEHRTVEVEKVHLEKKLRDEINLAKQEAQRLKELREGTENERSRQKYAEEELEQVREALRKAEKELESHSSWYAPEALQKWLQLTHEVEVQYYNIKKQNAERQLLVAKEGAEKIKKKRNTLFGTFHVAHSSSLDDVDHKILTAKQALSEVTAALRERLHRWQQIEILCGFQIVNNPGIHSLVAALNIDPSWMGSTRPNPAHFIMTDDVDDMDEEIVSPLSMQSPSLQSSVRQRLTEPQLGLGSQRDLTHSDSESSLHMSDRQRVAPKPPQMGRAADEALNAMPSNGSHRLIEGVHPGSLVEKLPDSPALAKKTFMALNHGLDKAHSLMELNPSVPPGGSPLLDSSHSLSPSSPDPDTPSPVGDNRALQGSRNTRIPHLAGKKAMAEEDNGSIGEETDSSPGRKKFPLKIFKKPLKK
T1 sequence (peptide, as listed by the source): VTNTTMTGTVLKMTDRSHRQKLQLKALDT

B1: monoclonal anti-STIM1 antibody clone B-M4 (antibody, V domains shown)
VH: EVKLVESGGGLVQPGGSLKLSCAASGFTFSRYSMSWVRQTPEKRLEWVAHIRNGGGSTYYPDTVKGRFTISRDNAKNTLYLQMSSLKSEDTAMYYCARPPYGNYEGYFDVWGAGTTVTVSS
VL: DIVMSQSPSSLAVSAGEKVTMSCKSSQSLLNSRTRKNYLAWYQQKPGQSPKLLIYWASTRESGVPDRFTGSGSGTDFTLTISSVQAEDLAVYYCKQSYNLYTFGGGTKLEIK
notes: In the direct flow cytometry assays it was coupled to phycoerythrin (PE); also called B-M4 mAb; anti-STIM1 mAb clone B-M4
For the molecule B1, the binding result in assay [1] is on record as “no binding”; in assay [2], “no binding”; in [3], “no binding”; in assay [6] it was “binds”. Further, the “EC50 (read off the curve)” value in assay [4] was about 0.02 µg/mL; in assay [7] it was about 0.07 µg/mL. Also, the Kd in [5] is 37 nM. Further, the on-rate constant (kon) in [8] was 9960 M⁻¹ s⁻¹. The koff in assay [9] amounted to 0.000369 s⁻¹.

Values taken from patent publication US20230058212A1 (UNIVERSIT DE BRETAGNE OCCIDENTALE UBO, published 2023).
